# Source: the supplement of paper PMC10126150
# ± gives the standard deviation of the averaged measurements.
# Tested on: ATP
# Assay: switch fluorescence ratio, 500 uM ATP over buffer (Cy3 cluster intensity, sum of 5 cycles each) (fold (ratio)); higher = stronger signal-on switching upon ATP binding; sequences stand for … in TCGTCGGCAGCGTCAGATGTGTATAAGAGACAGTTTTTTTTTTTTTTTTTTTTTTTTT…TC
# Settings: aptamer strand: ATP DNA aptamer (quencher-CACCTGGGGGAGTATTGCGGAGGAAGG + anchor), 100 nM annealed; ATP concentration: 500 uM
# Outline: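 Exposure to 500 uM ATP lasted 15 min at 22 °C before imaging, and a selection-buffer image was taken beforehand, for Cy3-labelled switching-strand clusters on a modified Illumina MiSeq flow-cell annealed to 100 nM quencher-labelled ATP aptamer. Five buffer/ATP cycles were run with NaOH stripping and re-annealing between them. The fluorescence ratio per cluster is summed target-cycle over summed buffer-cycle Cy3 intensity, averaged per switch-domain sequence. Clusters outside 100-1000 RFU were excluded.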
row,Sequence,switch fluorescence ratio
1,TCCAAGTCCC,1.018 ± 0.0088
2,TCCAATCGGT,0.973 ± 0.019
3,TCCAATCTCT,1.06 ± 0.02
4,TCCAATTGGA,0.9855 ± 0.0021
5,TCCAATTGGG,1.11 ± 0.09
6,TCCACTCTTC,0.991 ± 0.024
7,TCCAGACGGC,1 ± 0.013
8,TCCAGGGCGA,1.16 ± 0.13
9,TCCAGGGTAA,1.0425 ± 0.00073
10,TCCAGGTGGG,2.39 ± 0.19
11,TCCAGGTTAG,1.17 ± 0.03
12,TCCAGTCAAA,1.01 ± 0.075
13,TCCAGTTTTT,0.999 ± 0.015
14,TCCATAAAAA,0.999 ± 0.022
15,TCCATCTGCG,1.097 ± 0.007
16,TCCATGTATC,0.984 ± 0.02
17,TCCATTAGGA,0.9978 ± 0.0082
18,TCCATTGTGT,0.992 ± 0.029
19,TCCATTTTGT,1.01 ± 0.05
20,TCCATTTTTT,0.992 ± 0.035
21,TCCCAAAATG,1.01 ± 0.039
22,TCCCACGGCC,1.083 ± 0.0017
23,TCCCATTTGG,1.03 ± 0.072
24,TCCCATTTTT,1.01 ± 0.038
25,TCCCCGTCGA,1.88 ± 1.2

row,Sequence,switch fluorescence ratio
1,TCCCGGCAGA,0.997 ± 0.013
2,TCCCGGGAAA,1.04 ± 0.082
3,TCCCGTTATT,1.01 ± 0.025
4,TCCCTACGAT,1.06 ± 0.016
5,TCCCTTGGGT,1 ± 0.0092
6,TCCCTTTCGA,1.21 ± 0.063
7,TCCGACTCG,1.09 ± 0.041
8,TCCGAGCCTT,2.08 ± 0.12
9,TCCGAGGGGT,1.67 ± 0.91
10,TCCGAGTTGG,1.05 ± 0.023
11,TCCGATTATG,1.0175 ± 0.00092
12,TCCGCGGAG,1.15 ± 0.13
13,TCCGCTTGAG,1.36 ± 0.016
14,TCCGGAGAAT,1.79 ± 1.1
15,TCCGGGGCAA,3.73 ± 2
16,TCCGGGGCGG,1.11 ± 0.06
17,TCCGGGGTCG,1.034 ± 0.0062
18,TCCGGGGTGT,1.26 ± 0.44
19,TCCGGGTTGT,1.04 ± 0.056
20,TCCGGTAGTT,1.06 ± 0.013
21,TCCGGTCAGC,1.13 ± 0.15
22,TCCGTAAACG,1.09 ± 0.041
23,TCCGTAGTGT,2.12 ± 0.37
24,TCCGTCCCCG,1.35 ± 0.058
25,TCCGTCGCAA,2.23 ± 0.41

row,Sequence,switch fluorescence ratio
1,TCCGTCGGGG,1.01 ± 0.033
2,TCCGTGGGGA,1.16 ± 0.25
3,TCCGTTGATA,1.165 ± 0.01
4,TCCGTTGCGG,1.03 ± 0.034
5,TCCGTTGGCT,1.07 ± 0.062
6,TCCGTTTCTG,0.971 ± 0.018
7,TCCTAACTTG,1.01 ± 0.014
8,TCCTAAGGGC,1.04 ± 0.038
9,TCCTAAGGGG,1.79 ± 1
10,TCCTACTGGG,1.04 ± 0.028
11,TCCTCAAATG,1.607 ± 0.002
12,TCCTCAGGTG,4.07 ± 0.33
13,TCCTCAGTGC,1.93 ± 0.13
14,TCCTCATTTG,1.005 ± 0.0078
15,TCCTCGAGCT,1.82 ± 1.2
16,TCCTCTTAAG,1.09 ± 0.03
17,TCCTGAATGA,1 ± 0.03
18,TCCTGAGGCG,1.02 ± 0.022
19,TCCTGATTTT,1.02 ± 0.037
20,TCCTGCTCCG,1.56 ± 0.13
21,TCCTGCTGTT,0.998 ± 0.02
22,TCCTGGGGTC,1.05 ± 0.043
23,TCCTGGTGCG,1.13 ± 0.024
24,TCCTGTTACA,1.03 ± 0.017
25,TCCTTGATCC,1.02 ± 0.089

row,Sequence,switch fluorescence ratio
1,TCCTTGATTG,0.974 ± 0.057
2,TCCTTGGCTT,1.47 ± 0.49
3,TCCTTGGGGA,1.08 ± 0.086
4,TCCTTGTGGT,0.973 ± 0.037
5,TCCTTTGGAT,1.05 ± 0.049
6,TCCTTTGTAT,1.1 ± 0.015
7,TCCTTTTAAC,1.25 ± 0.085
8,TCGAAATATT,1.55 ± 0.81
9,TCGAACGTTT,1.324 ± 0.0088
10,TCGAAGAGTT,0.994 ± 0.033
11,TCGAAGGGCG,1.021 ± 0.0057
12,TCGAATGGCC,0.994 ± 0.024
13,TCGACCGATT,1.03 ± 0.037
14,TCGACGGGAT,2.42 ± 0.31
15,TCGAGAAGGT,0.993 ± 0.054
16,TCGAGAGAGG,1.01 ± 0.049
17,TCGAGATCCG,0.996 ± 0.018
18,TCGAGCAGGG,1.07 ± 0.055
19,TCGAGGCACT,1.28 ± 0.17
20,TCGAGGCGGG,1.18 ± 0.21
21,TCGAGGGAGG,0.994 ± 0.075
22,TCGAGGGGGT,0.986 ± 0.054
23,TCGAGGTATA,2.94 ± 2.6
24,TCGAGTATAT,0.981 ± 0.021
25,TCGAGTCGTG,0.9922 ± 0.0054
